19 molecules from patent US20180362652A1 (Biogen, published 2018) can be followed below.

To fix the notation:
B1: ch24F4 C95S variant (antibody, human IgG1, kappa, V domains shown)
VH: DVKLVESGGGLVKPGGSLKLSCAASGFTFSTYTMSWVRQTPEKRLEWVATISPGDSFGYYYPDSVQGRFTISRDNAKNTLFLQMSSLKSEDTAMYYCTRDIYYNYGAWFAYWGQGTLVTVSA
VL: DIVLTQSPASLAVSLGQRATISCKASQSVDYDGDSYMNWYQQKPGQPPKLLIYAASTLESGVPARFSGSGSGTDFTLNIHPVEEEDAATYYCQQSNEDPRTFGGGTKLEIKR
notes: pYL672 with pEAG2678; conditioned medium of 293E cells
B2: hu24F4 H6/L2 (antibody, V domains shown)
VH: DVQLVESGGGLVKPGGSLRLSCAASGFTFSTYTMSWVRQAPGKGLEWVATISGGNNYGYSYPDSVKGRFTISRDNAKNSLYLQMNSLRAEDTAVYYCTRDIYYNYGAWFAYWGQGTLVTVSS
VL: DIQLTQSPSSLSVSVGDRATISCKASQSVDYDGDSYMNWYQQKPGKAPKLLIYAASTLESGVPSRFSGSGSGTDFTLTISSVQPEDFATYYCQQSNEDPRTFGQGTKVEIK
notes: Humanized variant, human IgG1/kappa, conditioned medium of 293E cells; also called H6 series of hu24F4
B3: hu24F4 H3/L2 (antibody, V domains shown)
VH: B2 VH with D1E, A49S, G53P, N55D, N56S, Y57F, S60Y, K66Q, T98A
VL: B2 VL
notes: Humanized variant, human IgG1/kappa, conditioned medium of 293E cells; also called H3 series of hu24F4
B4: hu24F4 H5/L2 (antibody, V domains shown)
VH: B2 VH with E6Q, G53P, N55D, N56S, Y57F, S60Y, K66Q, S86R, Q114R
VL: B2 VL
notes: Humanized variant, human IgG1/kappa, conditioned medium of 293E cells; also called H5 series of hu24F4
B5: hu24F4 H4/L2 (antibody, V domains shown)
VH: B2 VH with G53P, N55D, N56S, Y57F, S60Y, K66Q
VL: B2 VL
notes: Humanized variant, human IgG1/kappa, conditioned medium of 293E cells; also called H4 series of hu24F4
B6: hu24F4 H2/L2 (antibody, V domains shown)
VH: EVQLVESGGGLVKPGGSLRLSCAASGFTFSTYTMSWVRQAPGKGLEWVSTISPGDSSTIYYADSVKGRFTISRDNAKNSLYLQMNSLRAEDTAVYYCARDIYYNYGAWFAYWGQGTLVTVSS
VL: B2 VL
notes: Humanized variant, human IgG1/kappa, conditioned medium of 293E cells; also called H2 series of hu24F4
B7: hu24F4 H0/L2 (antibody, V domains shown)
VH: EVQLVESGGGLVKPGGSLRLSCAASGFTFSTYTMSWVRQAPGKGLEWVSAISGSGGSTYYADSVKGRFTISRDNAKNSLYLQMNSLRAEDTAVYYCARDIYYNYGAWFAYWGQGTLVTVSS
VL: B2 VL
notes: Humanized variant, human IgG1/kappa, conditioned medium of 293E cells; also called H0 series of hu24F4
B8: hu24F4 H1/L2 (antibody, V domains shown)
VH: B7 VH with A50T, G53P, S54G, G55D, G56S, S57F, T58G, A61P
VL: B2 VL
notes: Humanized variant, human IgG1/kappa, conditioned medium of 293E cells; also called H1 series of hu24F4
B9: hu24F4 H2/L0 (antibody, V domains shown)
VH: B6 VH
VL: B2 VL with D1A, V13A, A19V, S22T, V82L
notes: as for B6
B10: hu24F4 H1/L0 (antibody, V domains shown)
VH: B7 VH with A50T, G53P, S54G, G55D, G56S, S57F, T58G, A61P
VL: B2 VL with D1A, V13A, A19V, S22T, V82L
notes: as for B8
B11: hu24F4 H0/L0 (antibody, V domains shown)
VH: B7 VH
VL: B2 VL with D1A, V13A, A19V, S22T, V82L
notes: as for B7
B12: hu24F4 H4/L1 S95T (antibody, human IgG1, V domains shown)
VH: B2 VH with G53P, N55D, N56S, Y57F, S60Y, K66Q
VL: B2 VL with V13A, A19V, S22T, V82L, S95T
notes: Human IgG1/kappa; conditioned medium of 293E cells; also called H4-L1-C95T (YL750/YL746); hu24F4 H4/L1 C95T
B13: hu24F4 H4/L1 S95C (antibody, human IgG1, V domains shown)
VH: B2 VH with G53P, N55D, N56S, Y57F, S60Y, K66Q
VL: B2 VL with V13A, A19V, S22T, V82L, S95C
notes: Human IgG1/kappa; conditioned medium of 293E cells; also called H4-L1-S95C (YL749/YL746)
B14: hu24F4 H4/L1 S95V (antibody, human IgG1, V domains shown)
VH: B2 VH with G53P, N55D, N56S, Y57F, S60Y, K66Q
VL: B2 VL with V13A, A19V, S22T, V82L, S95V
notes: Human IgG1/kappa; conditioned medium of 293E cells; also called H4-L1-C95V (YL752/YL746)
B15: hu24F4 H5/L1 C95A (antibody, V domains shown)
VH: B2 VH with E6Q, G53P, N55D, N56S, Y57F, S60Y, K66Q, S86R, Q114R
VL: DIQLTQSPSSLSASVGDRVTITCKASQSVDYDGDSYMNWYQQKPGKAPKLLIYAASTLESGVPSRFSGSGSGTDFTLTISSLQPEDFATYYCQQANEDPRTFGQGTKVEIKR
notes: also called H5/L1 C95A variant
B16: hu24F4 H6/L0 (antibody, V domains shown)
VH: B2 VH
VL: B2 VL with D1A, V13A, A19V, S22T, V82L
notes: as for B2
B17: hu24F4 H0/L1 (antibody, V domains shown)
VH: B7 VH
VL: B2 VL with V13A, A19V, S22T, V82L
notes: as for B7
B18: hu24F4 H2/L1 (antibody, V domains shown)
VH: B6 VH
VL: B2 VL with V13A, A19V, S22T, V82L
notes: as for B6
B19: hu24F4 H1/L1 (antibody, V domains shown)
VH: B7 VH with A50T, G53P, S54G, G55D, G56S, S57F, T58G, A61P
VL: B2 VL with V13A, A19V, S22T, V82L
notes: as for B8

One may read the Kd as the free concentration of one partner at which half of the binding sites on the other are occupied at equilibrium, for simple one-to-one binding. Usually koff stands for the rate constant with which the complex falls apart. As a reminder, the kon is the second-order rate constant of association.

Changes are numbered by the printed parent chain. In names and notes the source's numbering stands.

The target of the first test is T1, human BDCA2 (full-length, cell surface) (human, UniProt Q8WTT0 1-213).
T1 construct: also called huBDCA2; surface human BDCA2
T1 sequence: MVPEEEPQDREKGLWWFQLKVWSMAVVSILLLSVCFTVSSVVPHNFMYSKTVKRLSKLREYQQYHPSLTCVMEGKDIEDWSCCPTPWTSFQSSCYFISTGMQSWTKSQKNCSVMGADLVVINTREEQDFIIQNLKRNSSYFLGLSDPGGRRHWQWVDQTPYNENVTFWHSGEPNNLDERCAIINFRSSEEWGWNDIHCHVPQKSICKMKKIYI
Description: direct binding FACS on surface BDCA2, conditioned medium.
Turning to B1, the binding result was “binds”.

The next test has as its target T2, monomeric huBDCA2 ectodomain (human, UniProt Q8WTT0 45-213).
T2 construct: Prepared by proteolytic cleavage of the purified muIgG2a Fc-huBDCA2 fusion protein (pEAG2423); also called human BDCA2 ectodomain; human BDCA2 ECD
T2 sequence: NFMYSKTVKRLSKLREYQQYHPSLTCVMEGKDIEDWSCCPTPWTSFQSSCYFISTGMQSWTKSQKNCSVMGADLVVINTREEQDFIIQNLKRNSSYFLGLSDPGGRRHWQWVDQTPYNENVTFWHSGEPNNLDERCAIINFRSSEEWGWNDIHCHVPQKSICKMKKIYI
Description: Octet, mAb on anti-human Fc tips, monomeric huBDCA2 in solution. Here is the method:
Site-directed mutagenesis was performed using Agilent's QuikChange II mutagenesis kit following the manufacturer's recommended protocol. […] Mutated plasmids were identified by screening for the introduced restriction site changes. The full-length light chain cDNA sequences in the resultant plasmids were confirmed by DNA sequencing. […] Conditioned medium was harvested at 2 days post-transfection. […] Antibodies from conditioned medium from transiently transfected cells were bound to anti-human Fc tips, then monomeric huBDCA2 was flowed over the Octet tips, to examine binding and dissociation.
B1: the binding result is given as “binds”.

For the next test, the target named is T1, human BDCA2 (full-length, cell surface). Description: direct binding FACS, conditioned medium on CHO cells co-expressing BDCA2 and FcεRIγ. Here is the method:
(§1) Conditioned medium was assayed by direct binding FACS on stably transfected DG44 CHO cells co-expressing full-length BDCA2 and FcεRIγ cDNAs (human or cynomolgus monkey), (relevant expression vectors are human BDCA2/FcεRIγ: pEAG2456, cyno BDCA2/FcεRIγ: pEAG2668).
As to B2, the binding result was “binds”.

On to B3, for which the binding result was “binds”.

For B4, the binding result is “binds”.

For B5, the binding result is “binds”.

On to B6, for which the binding result is “no binding”.

Consider B7, for which the binding result is listed as “no binding”.

For B8, the binding result is recorded as “no binding”.

A further test has as its target T3, cynomolgus monkey BDCA2 (full-length, cell surface, E73 SNP form) (cynomolgus monkey, UniProt Q8WTT0 1-213 (human entry)).
T3 construct: also called cyno BDCA2; surface cynomolgus monkey BDCA2
T3 chain: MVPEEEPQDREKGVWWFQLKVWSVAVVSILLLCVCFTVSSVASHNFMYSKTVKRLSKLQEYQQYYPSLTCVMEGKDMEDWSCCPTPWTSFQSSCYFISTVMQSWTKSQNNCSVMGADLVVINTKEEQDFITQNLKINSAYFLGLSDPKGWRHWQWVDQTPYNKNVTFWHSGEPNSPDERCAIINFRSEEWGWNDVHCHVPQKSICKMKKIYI
Described as above. Here is the method: as §1
As to B9, the binding result was “no binding”.

For the molecule B2, the binding result is listed as “binds”.

With B3, the binding result was “binds”.

Take B4: the binding result is “binds”.

In the case of B5, the binding result was “binds”.

Turning to B10, the binding result is reported as “no binding”.

For B6, the binding result was “no binding”.

As to B7, the binding result was “no binding”.

As to B11, the binding result was “no binding”.

Take B8: the binding result is listed as “no binding”.

A further test deals with T2, monomeric huBDCA2 ectodomain. Description: Octet, mAb from conditioned medium on anti-human Fc tips, monomeric huBDCA2 in solution. Here is the method: Backmutation to the unpaired cysteine, i.e., S95C, was constructed by site-directed mutagenesis producing plasmid pYL749. Variants S95T, S95A, and S95V were constructed by site-directed mutagenesis producing plasmids pYL750, pYL751, and pYL752, respectively. The full-length light chain cDNA sequences in the resultant plasmids were confirmed by DNA sequencing. […] Conditioned medium was harvested at 2 days post-transfection. […] Conditioned medium containing the C95 variant mAbs was assayed by Octet for binding to human BDCA2 ectodomain. Antibodies from conditioned medium from transiently transfected cells were bound to anti-human Fc tips, then monomeric huBDCA2 was flowed over the Octet tips, to examine binding and dissociation.
(In BLI a coated tip is dipped into the sample, and binding shifts an interference pattern.)
The molecule B12 gave a Kd of 0.392 nM, an off-rate constant (koff) of 0.00037 s⁻¹ and an on-rate (kon) of 944000 M⁻¹ s⁻¹.

Regarding B4, the binding result was “binds”.

In the case of B13, binding was put at a Kd of 0.289 nM, the koff came out at 0.000279 s⁻¹ and the kon turned out to be 967000 M⁻¹ s⁻¹.

On to B5, for which the binding result is “binds”.

For B14, the dissociation constant Kd came out at 0.323 nM, the koff amounted to 0.000301 s⁻¹ and the kon came to 933000 M⁻¹ s⁻¹.

In the case of B15, the binding result is reported as “binds”.

Another test shares this target. Described as above. This is another data set of the same source. Here is the method:
The monomeric huBDCA2 ectodomain was prepared by proteolytic cleavage from the purified muIgG2a Fc-huBDCA2 fusion protein (relevant plasmid: pEAG2423). Antibodies from conditioned medium from transiently transfected cells were bound to anti-human Fc tips, and then monomeric huBDCA2 was flowed over the Octet tips, to examine binding and dissociation.
The molecule B16 yielded a Kd of 5 nM, a koff of 0.00137 s⁻¹ and a kon of 273000 M⁻¹ s⁻¹.

Another test addresses T3, cynomolgus monkey BDCA2 (full-length, …). Description: direct binding FACS, conditioned medium on CHO cells co-expressing cynomolgus BDCA2 and FcεRIγ. Here is the method:
as §1
For the molecule B17, the binding result is “no binding (tested: about 6000 ng/ml)”.

B18: the binding result was “no binding (tested: about 7000 ng/ml)”.

With B19, the binding result is reported as “no binding (tested: about 5000 ng/ml)”.
